Test results published in PMC5457524, “An engineered high affinity Fbs1 carbohydrate binding protein for selective capture of N-glycans and N-glycopeptides” (Nature Communications, 2017).
No end group written: not given here. TMR = tetramethylrhodamine

T1: SNAP-Fbs1 fusion protein (wild-type human Fbs1 sugar-binding domain, residues 92-296) (human, UniProt Q9UK22 92-296)
T1 construct: Immobilised covalently through the SNAP tag on benzylguanine (BG) agarose beads in the bead assays; also called wt Fbs1; Fbs1 beads; source: NEB Express E. coli, purified (for Fbs1 beads and ITC); E. coli cell lysate (fetuin or RNase B bead pulldown); not shown: SNAP tag, N-terminal, kept
T1 sequence (looked up): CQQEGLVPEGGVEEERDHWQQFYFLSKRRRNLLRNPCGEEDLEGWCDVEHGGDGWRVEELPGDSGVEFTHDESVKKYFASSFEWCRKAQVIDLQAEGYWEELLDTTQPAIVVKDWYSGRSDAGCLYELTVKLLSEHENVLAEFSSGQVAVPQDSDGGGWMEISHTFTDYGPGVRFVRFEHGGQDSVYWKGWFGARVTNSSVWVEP

T2: fetuin (UniProt P12763 19-359, sialylated complex N-linked glycans)
T2 construct: fetuin; Denatured by boiling in Rapid PNGase F buffer, or on Affi-Gel 15 beads with 6 M guanidine-HCl; also called sialylated fetuin; fetuin beads; source: bought: New England Biolabs; denatured before the assay
T2 sequence (looked up): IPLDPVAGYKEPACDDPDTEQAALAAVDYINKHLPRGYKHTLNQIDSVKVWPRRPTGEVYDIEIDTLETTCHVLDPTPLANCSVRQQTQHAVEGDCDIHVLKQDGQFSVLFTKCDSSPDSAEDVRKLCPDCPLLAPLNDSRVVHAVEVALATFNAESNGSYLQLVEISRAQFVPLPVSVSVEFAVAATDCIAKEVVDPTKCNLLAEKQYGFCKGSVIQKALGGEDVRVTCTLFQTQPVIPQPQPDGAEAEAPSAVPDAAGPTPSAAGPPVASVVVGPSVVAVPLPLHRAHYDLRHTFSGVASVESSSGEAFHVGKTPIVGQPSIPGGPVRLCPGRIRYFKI

B1: SNAP-Fbs1 GYR variant (S155G, F173Y, E174R) (designed binder)
chain: CQQEGLVPEGGVEEERDHWQQFYFLSKRRRNLLRNPCGEEDLEGWCDVEHGGDGWRVEELPGDGGVEFTHDESVKKYFASSYRWCRKAQVIDLQAEGYWEELLDTTQPAIVVKDWYSGRSDAGCLYELTVKLLSEHENVLAEFSSGQVAVPQDSDGGGWMEISHTFTDYGPGVRFVRFEHGGQDSVYWKGWFGARVTNSSVWVEP
notes: numbered on the full-length human protein; source: E. coli, purified (for beads and N-glyco-FASP); E. coli cell lysate (fetuin bead pulldown); not shown: SNAP tag, N-terminal, kept

How the values were obtained:
[1] = target: B1; test: pull-down; wt or GYR SNAP-Fbs1 on BG beads; TMR-labelled glycopeptides; 4 °C, 1 h; bound amount from the TMR fluorescence left in the supernatant, given as recovery percentage; low salt (50 mM NaCl or 50 mM ammonium acetate pH 7.5) or high salt (2 M NaCl); details: both partners purified
[2] = target: B1; test: affinity purification with mass spectrometry; wt Fbs1 or Fbs1 GYR enrichment from a tryptic digest of RNase B spiked with SGP and SGP-TMR; low salt (50 mM ammonium acetate, pH7.5); LC-MS, SGP-TMR by fluorescence; details: both partners purified
[3] = target: T1, SNAP-Fbs1 fusion protein (wild-type …); test: ITC; 270 μM SGP injected into 27 μM SNAP-Fbs1; 20 mM Tris.HCl pH 7.5, 1 mM EDTA, 50 mM NaCl (low salt); single site binding model; details: both partners purified
[4] = target: T1, SNAP-Fbs1 fusion protein (wild-type …); test: ITC; 270 μM SGP injected into 27 μM SNAP-Fbs1; 20 mM Tris.HCl pH 7.5, 1 mM EDTA, 2 M NaCl (high salt); single site binding model; details: both partners purified
[5] = target: T1, SNAP-Fbs1 fusion protein (wild-type …); test: pull-down; wt or GYR SNAP-Fbs1 on BG beads; TMR-labelled glycopeptides; 4 °C, 1 h; bound amount from the TMR fluorescence left in the supernatant, given as recovery percentage; low salt (50 mM NaCl or 50 mM ammonium acetate pH 7.5) or high salt (2 M NaCl); details: both partners purified
[6] = target: B1; test: pull-down; wt, GYR or PPRYR SNAP-Fbs1 on BG beads; mixture of denatured fetuin and RNase B; low salt (50 mM ammonium acetate pH 7.5 named for Fig. 4a); 4 °C, 1 h; SDS-PAGE; details: both partners purified
[7] = target: T2, fetuin; test: pull-down; fetuin (Affi-Gel 15) or RNase B (Affi-Gel 10) beads, denatured with 6 M guanidine-HCl; E. coli cell lysate with wt or mutant SNAP-Fbs1; 20 mM Tris.HCl pH 7.5, 1 mM EDTA, 50 mM NaCl (low salt) or 2 M NaCl (high salt), 30% Protein-Free Blocking buffer; 4 °C, 1 h; SDS-PAGE, ImageJ; details: one partner purified

Row | binding result [1] | fold change of the pulled-down amount against wt Fbs1 [7] [fold] | Binder | also measured
1 | binds |  | K(TMR)VAN(bi‑antennary complex N‑glycan, terminal sialic acids)K(TMR)T (peptide of SGP; also called glycopeptide 1) [SGP-TMR (SGP labelled with two TMR fluorophores on the lysines)] | 
2 |  |  | KVAN(bi‑antennary complex N‑glycan, terminal sialic acids)KT (naturally occurring glycopeptide of six amino acids; source: bought: Fushimi Pharmaceutical Co., Ltd) [sialylglycopeptide (SGP)] | binding result [2]: binds; Kd [3]: 3000 nM; Kd [4]: 1400 ± 40 nM
3 | binds |  | K(TMR)VANK(TMR)T (not fully specified (residue 4), peptide of SGP; also called glycopeptide 3; source: SGP-TMR trimmed with α2-3,6,8 Neuraminidase and β1-4 Galactosidase S) [SGP-TMR without sialic acids and galactose] | 
4 | binds |  | K(TMR)VAN(N‑glycan pentasaccharide core)K(TMR)T (peptide of SGP; also called glycopeptide 4; source: SGP-TMR trimmed with α2-3,6,8 Neuraminidase, β1-4 Galactosidase S and β-N-Acetylglucosaminidase S) [SGP-TMR without sialic acids, galactose and GlcNAc] | fold improvement in recovery (against untrimmed SGP-TMR) [5]: ≥ 3 fold
5 |  |  | RNase B (natural protein, UniProt P61823 27-150, looked up, a single site modified by a variety of high-mannose N-glycans, RNase B, the N-glycosylated form of pancreatic ribonuclease; Denatured by boiling (SDS/DTT or Rapid PNGase F buffer), or on Affi-Gel 10 beads with 6 M guanidine-HCl; source: bought: New England Biolabs; denatured before the assay) KETAAAKFERQHMDSSTSAASSSNYCNQMMKSRNLTKDRCKPVNTFVHESLADVQAVCSQKNVACKNGQTNCYQSYSTMSITDCRETGSSKYPNCAYKTTQANKHIIVACEGNPYVPVHFDASV | binding result [6]: binds
6 |  | ≥ 3.5 | B1 | 
7 |  | ≥ 3.5 | SNAP-Fbs1 PPRYR variant (combination of PPR and YR) (designed binder, numbered on the full-length human protein; source: E. coli, purified (for beads); E. coli cell lysate (fetuin bead pulldown); not shown: SNAP tag, N-terminal, kept) CQQEGLVPEGGVEEERDHWQQFYFLSKRRRNLLRNPCGEEDLEGWCDVEHGGDGWRVEELPGPPRVEFTHDESVKKYFASSYRWCRKAQVIDLQAEGYWEELLDTTQPAIVVKDWYSGRSDAGCLYELTVKLLSEHENVLAEFSSGQVAVPQDSDGGGWMEISHTFTDYGPGVRFVRFEHGGQDSVYWKGWFGARVTNSSVWVEP | 
8 |  | 1.5 | SNAP-Fbs1 S155A mutant (domain or fragment, human, UniProt Q9UK22 92-296, looked up, numbered on the full-length human protein; source: E. coli cell lysate; not shown: SNAP tag, N-terminal, kept) CQQEGLVPEGGVEEERDHWQQFYFLSKRRRNLLRNPCGEEDLEGWCDVEHGGDGWRVEELPGDAGVEFTHDESVKKYFASSFEWCRKAQVIDLQAEGYWEELLDTTQPAIVVKDWYSGRSDAGCLYELTVKLLSEHENVLAEFSSGQVAVPQDSDGGGWMEISHTFTDYGPGVRFVRFEHGGQDSVYWKGWFGARVTNSSVWVEP | 
9 |  | 2 | SNAP-Fbs1 S155G mutant (domain or fragment, human, UniProt Q9UK22 92-296, looked up, numbered on the full-length human protein; source: E. coli cell lysate; not shown: SNAP tag, N-terminal, kept) CQQEGLVPEGGVEEERDHWQQFYFLSKRRRNLLRNPCGEEDLEGWCDVEHGGDGWRVEELPGDGGVEFTHDESVKKYFASSFEWCRKAQVIDLQAEGYWEELLDTTQPAIVVKDWYSGRSDAGCLYELTVKLLSEHENVLAEFSSGQVAVPQDSDGGGWMEISHTFTDYGPGVRFVRFEHGGQDSVYWKGWFGARVTNSSVWVEP | 
